Values of other authors as cited in article PMC5811428.
pKd: −log10 of the molar value.

Target: C5aR (Homo sapiens) (UniProt P21730)
Chain of UniProt P21730 (P21730 whole entry): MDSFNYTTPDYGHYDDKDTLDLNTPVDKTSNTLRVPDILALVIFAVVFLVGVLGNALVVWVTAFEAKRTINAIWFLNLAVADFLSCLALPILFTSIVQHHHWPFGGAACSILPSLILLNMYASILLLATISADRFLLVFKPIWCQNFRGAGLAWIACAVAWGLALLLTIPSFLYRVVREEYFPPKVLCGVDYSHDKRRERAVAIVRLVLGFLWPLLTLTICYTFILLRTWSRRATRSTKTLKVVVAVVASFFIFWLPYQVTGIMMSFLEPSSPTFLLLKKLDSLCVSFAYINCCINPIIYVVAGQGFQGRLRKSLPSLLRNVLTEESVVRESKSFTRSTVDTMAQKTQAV

Q: With “hC5a C-terminal peptide CT peptide (from UniProt P01031)” as the substance, how does the pKd read?
A: 3.82
